Measurements from article PMC4739419, “Mutations in the nucleotide binding and hydrolysis domains of Helicobacter pylori MutS2 lead to altered biochemical activities and inactivation of its in vivo function” (BMC Microbiology, 2016).
Residue numbers refer to the chain shown, from its start. Numbers in names are those of the source. Like-named read-outs stand apart in the source and are kept apart here.

B1: HpMutS2-E413A (enzyme)
chain: MSDAPKRSLNPTLMMNNNNTPPKPLEESLDLKEFIALFKTFFAKERDTIALENDLKQTFTYLNEVDAIGLPTPKSVKESDLIIIKLTKLGTLHLDEIFEIVKRLHYIVVLQNAFKTFTHLKFHERLNAIVLPPFFNDLIALFDDEGKIKQGANATLDALNESLNRLKKESVKIIHHYARSKELAPYLVDTQSHLKHGYECLLLKSGFSGAIKGVVLERSANGYFYLLPESAQKIAQKIAQIGNEIDCCIVEMCQTLSHSLQKHLLFLKFLFKEFDFLDSLQARLNFAKAYNLEFVMPSFTQKKMILENFSHPILKEPKPLNLKFEKSMLAVTGVNAGGKTMLLKSLLSAAFLSKHLIPMKINAHHSIIPYFKEIHAIINDPQNSANNISTFAGRMKQFSALLSKENMLLGVDAIELGTDADEASSLYKTLLEKLLKQNNQIIITTHHKRLSVLMAENKEVELLAALYDEEKERPTYTFLKGVIGKSYAFETALRYGVPHFLIEKAKTFYGEDKEKLNVLIENSSALERELKQKNEHLENALKEQEYLKNAWLLEMEKQKEIFHNKKLELEKSYQQALNILKSEVASKDTSSMHKEIHKASEILSKHKTNQEIPQIITNFQANEKARYKNESVLIVQILDKGYYWIETELGMRLKAHGSLLKKIQKPPKNKFKPPKTTIPKPKEASLRLDLRGQRSEEALDLLDAFLNDALLGGFEEVLICHGKGSGILEKFVKEFLKNHPKVVSFSDAPINLGGSGVKIVKL
notes: also called Walker-B mutant
B2: HpMutS2: Helicobacter pylori MutS2 (1-762), C-terminally His6-tagged wild-type protein, nuclease and ABC ATPase (protein)
chain: B1 chain with A413E
modifications: left off: His6, C-terminal, state not stated
notes: Helicobacter pylori MutS2 (1-762), C-terminally His6-tagged wild-type protein, nuclease and ABC ATPase
B3: HpMutS2-G338R (protein)
chain: B1 chain with G338R, A413E

How the values were obtained:
Holliday junction [1] = assay: Electrophoretic mobility shift assay (EMSA); type: binding; details: for Kd: read-out: DNA binding affinity (dissociation constant); for fold reduced affinity compared to wild-type: no nucleotide
Description: (§1) Fig. 5 Effect of nucleotide cofactors on DNA binding activity of HpMutS2 and mutants. Electrophoretic mobility shift assays were performed by incubating radiolabeled DNA substrates (0.16 nM) with increasing concentrations of proteins as described in Methods section. Nucleotides (1 mM) were added separately to the reaction mixtures. After incubation of 30 min on ice, the reaction mixtures were electrophoresed on native PAGE (8 %) at 4 °C. (a, panel 1–6) Interaction of HpMutS2 and mutants with single-stranded DNA. b-g Plots of percentage of bound DNA substrate (ssDNA and Holliday junction) versus protein concentration. The percentage binding was calculated by measuring the depletion in substrate DNA considering DNA without protein as 100 %. Error bars represent standard deviation from two or more different experiments. Schematic representation of DNA substrates used are shown at the left side of figures
(§2) Radiolabeled DNA substrates (0.16 nM) were incubated with increasing concentrations of HpMutS2 and mutants in buffer A with 1X BSA (0.1 μg/μl). ATP, ADP, and ATPγS (1 mM each) were added separately to the reaction mixture. The NaCl concentration was maintained to 110 mM by adding storage buffer C to the reaction mixture. After incubation of 30 min on ice, the reaction mixtures were electrophoresed on native PAGE (8 %) at 4 °C. The gels were transferred on to Whatman 3 mm paper and dried under vacuum at 80 °C for 45 min. The gels were visualized by phosphorimaging and quantified using Image Gauge (Version 3.0). The dissociation constants were determined by non-linear regression analysis and calculated by plotting the percentage of bound DNA versus concentration of protein using “One site - Specific binding with Hill slope” equation of the GraphPad Prism 5 software.

Single-stranded DNA [2] = assay: Electrophoretic mobility shift assay (EMSA); type: binding; details: for fold reduced affinity compared to wild-type: no nucleotide; for Kd: read-out: DNA binding affinity (dissociation constant)
Description: as §1, §2

Holliday junction [3] = assay: Nuclease assay (urea-PAGE); type: biochemical; details: for DNA cleavage rate: No nucleotide, DNA 1 nM, protein 150 nM, 37 °C
Description: (§3) Fig. 6 Effect of nucleotide cofactors on nuclease activity of HpMutS2 and mutants. Plots showing time dependent depletion of substrate DNA (a, b, c) Single-stranded DNA and d, e, f Holliday junction. DNA substrates (1 nM) were incubated with HpMutS2 and mutants (150 nM) at 37 °C. Reactions aliquots were removed at 0, 15, 30, 60, 90, and 120 min. The reactions were stopped using (50 mM EDTA + formamide dye) and the products were electrophoresed on urea-PAGE (15 %). The percentage reduction in substrate was calculated by considering DNA without protein as 100 %. Error bars represent standard deviation from two or more different experiments. (g, panel 1–6) Time dependent cleavage of Holliday junction by HpMutS2 and mutants. Reactions were performed as described in (A-F). Reactions aliquots were removed at 0, 15, 30, 60, 90, and 120 min
(§4) Radiolabeled DNA substrates were incubated with HpMutS2 and mutants in buffer D (50 mM Tris pH 8.0, 50 mM NaCl, 1 mM DTT, and 5 mM MgCl2). ATP, ADP, and ATPγS (1 mM each) were added separately to the reaction mixtures. 20 μl reaction aliquots were reomoved at 0, 15, 30, 60, 90, and 120 min. Reactions were stopped by adding EDTA (50 mM) + formammide dye (98 % formamide, 0.1 % bromophenol blue and 0.1 % xylene cyanol). The DNA substrates were denatured at 95 °C for 15 min and the reaction mixtures were separated on denaturing polyacrylamide gel (15 %) containing urea (7 M). The results were visualized and analysed as described earlier. DNA cleavage rates were estimated by dividing the total product formed (pM) in linear range of enzymatic activity by corresponding incubation time (min).

Single-stranded DNA [4] = assay: Nuclease assay (urea-PAGE); type: biochemical; details: for DNA cleavage rate: No nucleotide, DNA 1 nM, protein 150 nM, 37 °C
Description: as §3, §4

Molecule | Kd (Holliday junction [1]; + ADP 1 mM) [nM] | Kd (Holliday junction [1]; + ATP 1 mM) [nM] | Kd (Holliday junction [1]; No nucleotide) [nM] | fold reduced affinity compared to wild-type (Holliday junction [1]) | fold reduced affinity compared to wild-type (Single-stranded DNA [2]) | DNA cleavage rate (Holliday junction [3]) [pM/min] | DNA cleavage rate (Single-stranded DNA [4]) [pM/min] | Kd (Single-stranded DNA [2]; + ADP 1 mM) [nM] | Kd (Single-stranded DNA [2]; No nucleotide) [nM] | also measured
B1 | 46.4 ± 5.6 | 31.7 ± 3.34 | 30.8 ± 1.97 | ~ 2 fold | > 4 fold | 4.92 ± 1.25 | 6.50 ± 0.55 |  |  | fold reduced nuclease activity compared to wild-type (Holliday junction [3]; no nucleotide): ~ 4 fold; fold reduced nuclease activity compared to wild-type (Single-stranded DNA [4]; no nucleotide): ~ 4 fold
B2 | 22.6 ± 1.39 | 20.8 ± 2.95 | 14.4 ± 0.82 |  |  | 26.49 ± 3.95 | 24.82 ± 1.15 | 17.3 ± 2.89 | 21.5 ± 2.28 | Kd (Holliday junction [1]; + ATPγS 1 mM): 22.5 ± 1.23 nM; Kd (Single-stranded DNA [2]; + ATPγS 1 mM): 11.4 ± 0.19 nM; fold reduced ssDNA binding in presence of ATP (Single-stranded DNA [2]; ATP 1 mM, at lower concentrations of protein): ~ 5 fold; fold reduction of Holliday junction cleavage rate by ADP (Holliday junction [3]; ADP 1 mM vs no nucleotide): ~ 1.5 fold; fold reduction of Holliday junction cleavage activity in presence of ADP compared to ATP (Holliday junction [3]; ADP vs ATP, 1 mM): ~ 2.1 fold; fold stimulation of Holliday junction cleavage rate by ATP (Holliday junction [3]; ATP 1 mM vs no nucleotide): ~ 1.5 fold; fold reduced nuclease activity in presence of ATPγS (Holliday junction [3]; ATPγS 1 mM vs no nucleotide): ~ 1.5 fold
B3 | 34 ± 5.31 | 32 ± 4.34 | 21.4 ± 0.93 | ~ 1.5 fold | ~ 1.5 fold | 41.59 ± 9.53 | 40.19 ± 8.73 | 23.9 ± 2.91 | 32.4 ± 3.32 | Kd (Single-stranded DNA [2]; + ATP 1 mM): 30.7 ± 3.43 nM; fold elevated nuclease activity compared to wild-type (Holliday junction [3]; no nucleotide): ~ 1.6 fold; fold elevated nuclease activity compared to wild-type (Single-stranded DNA [4]; no nucleotide): ~ 1.6 fold
